Measured values from patent US20050124036.

Columns and labels:
[1] = biological target: T1, plasminogen according to the present invention (20 mg/ml, Example 8)
T1 chain: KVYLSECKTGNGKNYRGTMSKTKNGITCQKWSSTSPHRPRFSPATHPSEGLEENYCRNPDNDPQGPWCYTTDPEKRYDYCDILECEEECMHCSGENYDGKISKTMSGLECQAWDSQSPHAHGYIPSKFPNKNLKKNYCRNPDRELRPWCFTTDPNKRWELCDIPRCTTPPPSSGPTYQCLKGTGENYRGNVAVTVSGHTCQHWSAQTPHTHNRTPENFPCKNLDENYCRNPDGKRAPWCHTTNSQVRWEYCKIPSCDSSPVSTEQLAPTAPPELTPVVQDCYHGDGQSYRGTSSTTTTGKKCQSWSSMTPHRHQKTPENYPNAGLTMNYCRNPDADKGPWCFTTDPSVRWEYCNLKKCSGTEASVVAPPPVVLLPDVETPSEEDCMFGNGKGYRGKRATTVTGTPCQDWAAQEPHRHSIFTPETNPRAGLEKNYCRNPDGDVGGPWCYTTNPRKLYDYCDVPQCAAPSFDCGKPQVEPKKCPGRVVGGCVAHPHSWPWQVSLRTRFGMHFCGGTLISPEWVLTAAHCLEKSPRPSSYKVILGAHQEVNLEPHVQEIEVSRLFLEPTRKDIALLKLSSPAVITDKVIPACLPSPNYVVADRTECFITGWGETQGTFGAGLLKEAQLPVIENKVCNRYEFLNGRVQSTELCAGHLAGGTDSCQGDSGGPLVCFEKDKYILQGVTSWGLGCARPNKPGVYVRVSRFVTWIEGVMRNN

[2] = biological target: T2, streptokinase (S8026) (Sigma, Deisenhofen), P00779
T2 chain: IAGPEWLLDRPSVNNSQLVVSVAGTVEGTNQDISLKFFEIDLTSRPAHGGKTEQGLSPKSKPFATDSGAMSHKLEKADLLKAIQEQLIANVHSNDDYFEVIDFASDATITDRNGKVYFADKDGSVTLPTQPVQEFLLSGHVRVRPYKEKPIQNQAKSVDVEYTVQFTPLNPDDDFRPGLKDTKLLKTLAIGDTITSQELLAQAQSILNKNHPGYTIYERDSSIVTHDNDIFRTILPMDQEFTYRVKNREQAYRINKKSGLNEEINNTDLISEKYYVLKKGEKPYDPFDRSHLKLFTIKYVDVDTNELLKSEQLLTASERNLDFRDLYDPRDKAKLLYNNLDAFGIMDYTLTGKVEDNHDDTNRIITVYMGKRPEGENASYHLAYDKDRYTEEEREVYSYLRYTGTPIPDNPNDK

B1: Clostripain (protein)
chain: NKNQKVTIMYYCDADNNLEGSLLNDIEEMKTGYKDSPNLNLIALVDRSPRYSSDEKVLGEDFSDTRLYKIEHNKANRLDGKNEFPEISTTSKYEANMGDPEVLKKFIDYCKSNYEADKYVLIMANHGGGAREKSNPRLNRAICWDDSNLDKNGEADCLYMGEISDHLTEKQSVDLLAFDACLMGTAEVAYQYRPGNGGFSADTLVASSPVVWGPGFKYDKIFDRIKAGGGTNNEDDLTLGGKEQNFDPATITNEQLGALFVEEQRDSTHANGRYDQHLSFYDLKKAESVKRAIDNLAVNLSNENKKSEIEKLRGSGIHTDLMHYFDEYSEGEWVEYPYFDVYDLCEKINKSENFSSKTKDLASNAMNKLNEMIVYSFGDPSNNFKEGKNGLSIFLPNGDKKYSTYYTSTKIPHWTMQSWYNSIDTVKYGLNPYGKLSWCKDGQDPEINKVGNWFELLDSWFDKTNDVTGGVNHYQW
Q: B1 was tested. Which “plasmin activity after activation” value [1] did it give?
A: Its value is 1.7 U/mg.

B2: recombinant human Lys-plasminogen secreted by Pichia pastoris carrying pSM54.2, pAC37.1 or pJW9.1 (alpha-factor prepropeptide joined by a Kex2 and two Ste13 … (protein)
chain: KVYLSECKTGNGKNYRGTMSKTKNGITCQKWSSTSPHRPRFSPATHPSEGLEENYCRNPDNDPQGPWCYTTDPEKRYDYCDILECEEECMHCSGENYDGKISKTMSGLECQAWDSQSPHAHGYIPSKFPNKNLKKNYCRNPDRELRPWCFTTDPNKRWELCDIPRCTTPPPSSGPTYQCLKGTGENYRGNVAVTVSGHTCQHWSAQTPHTHNRTPENFPCKNLDENYCRNPDGKRAPWCHTTNSQVRWEYCKIPSCDSSPVSTEQLAPTAPPELTPVVQDCYHGDGQSYRGTSSTTTTGKKCQSWSSMTPHRHQKTPENYPNAGLTMNYCRNPDADKGPWCFTTDPSVRWEYCNLKKCSGTEASVVAPPPVVLLPDVETPSEEDCMFGNGKGYRGKRATTVTGTPCQDWAAQEPHRHSIFTPETNPRAGLEKNYCRNPDGDVGGPWCYTTNPRKLYDYCDVPQCAAPSFDCGKPQVEPKKCPGRVVGGCVAHPHSWPWQVSLRTRFGMHFCGGTLISPEWVLTAAHCLEKSPRPSSYKVILGAHQEVNLEPHVQEIEVSRLFLEPTRKDIALLKLSSPAVITDKVIPACLPSPNYVVADRTECFITGWGETQGTFGAGLLKEAQLPVIENKVCNRYEFLNGRVQSTELCAGHLAGGTDSCQGDSGGPLVCFEKDKYILQGVTSWGLGCARPNKPGVYVRVSRFVTWIEGVMRNN
Q: Which results are given for B2?
A: plasminogen activity after streptokinase activation, fermentation for 250 h, KM71H/pJW9.1-3 [2]: a plasminogen activity of 1375 U/l; plasminogen activity of culture supernatant after activation with streptokinase, 72 h of induction, KM71H/pSM54.2-1/1 [2]: 2 U/l; plasminogen activity of culture supernatant after activation with streptokinase, 72 h of induction, KM71H/pSM54.2-1/2 [2]: 8 U/l; plasminogen activity of culture supernatant after activation with streptokinase, 72 h of induction, KM71H/pSM54.2-1/3 [2]: 6 U/l; plasminogen activity of culture supernatant after activation with streptokinase, 118 h of induction, KM71H/pSM54.2-1/1 [2]: 8 U/l; plasminogen activity of culture supernatant after activation with streptokinase, 118 h of induction, KM71H/pSM54.2-1/2 [2]: 17 U/l; plasminogen activity of culture supernatant after activation with streptokinase, 118 h of induction, KM71H/pSM54.2-1/3 [2]: 13 U/l; plasminogen activity of culture supernatant after activation with streptokinase, 120 h of induction, KM71/pAC37.1-3/1 [2]: an activity of 120 U/l; plasminogen activity of culture supernatant after activation with streptokinase, 216 h of induction, KM71/pAC37.1-3/1 [2]: an activity of 190 U/l; plasminogen activity of culture supernatant after activation with streptokinase, BSM minimal medium, 120 h of induction, KM71/pAC37.1-3/1 [2]: a plasminogen activity of 193 U/l; plasminogen activity of culture supernatant after activation with streptokinase, BSM minimal medium, 168 h of induction, KM71/pAC37.1-3/1 [2]: 289 U/l

B3: recombinant human Lys-plasminogen secreted by Pichia pastoris KM71H/pMHS476.1 (alpha-factor prepropeptide joined by a Kex2 cleavage site) (protein)
chain: KVYLSECKTGNGKNYRGTMSKTKNGITCQKWSSTSPHRPRFSPATHPSEGLEENYCRNPDNDPQGPWCYTTDPEKRYDYCDILECEEECMHCSGENYDGKISKTMSGLECQAWDSQSPHAHGYIPSKFPNKNLKKNYCRNPDRELRPWCFTTDPNKRWELCDIPRCTTPPPSSGPTYQCLKGTGENYRGNVAVTVSGHTCQHWSAQTPHTHNRTPENFPCKNLDENYCRNPDGKRAPWCHTTNSQVRWEYCKIPSCDSSPVSTEQLAPTAPPELTPVVQDCYHGDGQSYRGTSSTTTTGKKCQSWSSMTPHRHQKTPENYPNAGLTMNYCRNPDADKGPWCFTTDPSVRWEYCNLKKCSGTEASVVAPPPVVLLPDVETPSEEDCMFGNGKGYRGKRATTVTGTPCQDWAAQEPHRHSIFTPETNPRAGLEKNYCRNPDGDVGGPWCYTTNPRKLYDYCDVPQCAAPSFDCGKPQVEPKKCPGRVVGGCVAHPHSWPWQVSLRTRFGMHFCGGTLISPEWVLTAAHCLEKSPRPSSYKVILGAHQEVNLEPHVQEIEVSRLFLEPTRKDIALLKLSSPAVITDKVIPACLPSPNYVVADRTECFITGWGETQGTFGAGLLKEAQLPVIENKVCNRYEFLNGRVQSTELCAGHLAGGTDSCQGDSGGPLVCFEKDKYILQGVTSWGLGCARPNKPGVYVRVSRFVTWIEGVMRNN
Q: With B3 as the protein, how does the “plasminogen activity of culture supernatant after activation with streptokinase (N-tosyl-Gly-Pro-Lys-pNA conversion), 72 h of induction, KM71H/pMHS476.1-1/1” value [2] read?
A: The value was 2 U/l.

Q: And the “plasminogen activity of culture supernatant after activation with streptokinase (N-tosyl-Gly-Pro-Lys-pNA conversion), 72 h of induction, KM71H/pMHS476.1-1/2” value [2]?
A: The value was 2 U/l.

Q: What about the “plasminogen activity of culture supernatant after activation with streptokinase (N-tosyl-Gly-Pro-Lys-pNA conversion), 72 h of induction, KM71H/pMHS476.1-1/3” value [2] of the same protein?
A: Its value is 1 U/l.

Q: And the “plasminogen activity of culture supernatant after activation with streptokinase (N-tosyl-Gly-Pro-Lys-pNA conversion), 118 h of induction, KM71H/pMHS476.1-1/1” value [2]?
A: Its value is 7 U/l.

Q: What about the “plasminogen activity of culture supernatant after activation with streptokinase (N-tosyl-Gly-Pro-Lys-pNA conversion), 118 h of induction, KM71H/pMHS476.1-1/2” value [2] of the same protein?
A: Its value is 9 U/l.

Q: And the “plasminogen activity of culture supernatant after activation with streptokinase (N-tosyl-Gly-Pro-Lys-pNA conversion), 118 h of induction, KM71H/pMHS476.1-1/3” value [2]?
A: The value was 8 U/l.
